# Assay results reported in article PMC2935968 (2010).
# B1: Rar1 (wild type, not GST-tagged) (protein)
# chain: MEVGSATKKLQCQRIGCNAMFTDDDNPQGSCQFHASGPFFHDGMKEWSCCKQRSHDFSLFLEIPGCKTGKHTTEKPVLAKSVPKHPVAAPTSSPDANAATKDSCSRCRQGFFCSDHGSQPKEQIKQTLNTPGQAEEEKIEPLAPPVQKAVIDINQPQVCKNKGCGQTFKERDNHETACSHHPGPAVFHDRLRGWKCCDVHVKEFDEFMEIPPCTKGWHSSSPDPAV
# B2: Hsp90 (protein)
# chain: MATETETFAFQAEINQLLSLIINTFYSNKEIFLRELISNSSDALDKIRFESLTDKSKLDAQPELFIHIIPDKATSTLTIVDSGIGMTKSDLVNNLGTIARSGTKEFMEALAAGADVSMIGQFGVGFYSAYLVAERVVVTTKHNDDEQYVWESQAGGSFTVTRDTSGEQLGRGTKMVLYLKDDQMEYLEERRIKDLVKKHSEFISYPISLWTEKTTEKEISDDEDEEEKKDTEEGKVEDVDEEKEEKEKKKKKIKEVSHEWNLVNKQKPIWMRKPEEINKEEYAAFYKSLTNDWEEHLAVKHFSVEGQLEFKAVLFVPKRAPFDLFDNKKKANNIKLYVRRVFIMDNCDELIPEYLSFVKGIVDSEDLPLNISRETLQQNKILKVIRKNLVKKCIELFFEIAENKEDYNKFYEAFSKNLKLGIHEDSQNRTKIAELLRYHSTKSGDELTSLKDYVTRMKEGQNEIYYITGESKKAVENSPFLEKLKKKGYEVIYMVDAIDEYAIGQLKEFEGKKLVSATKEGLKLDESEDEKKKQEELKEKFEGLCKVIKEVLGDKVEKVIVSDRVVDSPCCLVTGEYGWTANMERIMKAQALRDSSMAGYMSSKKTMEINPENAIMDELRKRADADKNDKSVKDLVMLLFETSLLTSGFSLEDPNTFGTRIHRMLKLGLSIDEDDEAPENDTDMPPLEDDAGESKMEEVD
# Columns and labels:
# Hsp90 = Hsp90 ( (Arabidopsis H. vulgare or …, UniProt Q7XJ80)); assay: competition GST pull-down; ATPase stimulation
# GST-Rar1 (wild type) = target: T1, GST-Rar1 (wild type) (Arabidopsis thaliana (Mouse-ear cress), UniProt Q9SE33); assay: GST pull-down; strengthened by Sgt1; ADP enhances the CHORDI-Hsp90 interaction
# T1 chain: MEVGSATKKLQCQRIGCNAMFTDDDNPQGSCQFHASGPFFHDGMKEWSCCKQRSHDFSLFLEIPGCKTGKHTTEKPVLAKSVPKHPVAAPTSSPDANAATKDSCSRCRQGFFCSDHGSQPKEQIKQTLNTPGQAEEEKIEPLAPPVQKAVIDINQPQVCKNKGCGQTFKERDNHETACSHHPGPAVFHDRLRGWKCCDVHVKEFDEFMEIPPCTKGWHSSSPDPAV
# Hsp90 (, sequence (Q7XJ80 entry or part of it): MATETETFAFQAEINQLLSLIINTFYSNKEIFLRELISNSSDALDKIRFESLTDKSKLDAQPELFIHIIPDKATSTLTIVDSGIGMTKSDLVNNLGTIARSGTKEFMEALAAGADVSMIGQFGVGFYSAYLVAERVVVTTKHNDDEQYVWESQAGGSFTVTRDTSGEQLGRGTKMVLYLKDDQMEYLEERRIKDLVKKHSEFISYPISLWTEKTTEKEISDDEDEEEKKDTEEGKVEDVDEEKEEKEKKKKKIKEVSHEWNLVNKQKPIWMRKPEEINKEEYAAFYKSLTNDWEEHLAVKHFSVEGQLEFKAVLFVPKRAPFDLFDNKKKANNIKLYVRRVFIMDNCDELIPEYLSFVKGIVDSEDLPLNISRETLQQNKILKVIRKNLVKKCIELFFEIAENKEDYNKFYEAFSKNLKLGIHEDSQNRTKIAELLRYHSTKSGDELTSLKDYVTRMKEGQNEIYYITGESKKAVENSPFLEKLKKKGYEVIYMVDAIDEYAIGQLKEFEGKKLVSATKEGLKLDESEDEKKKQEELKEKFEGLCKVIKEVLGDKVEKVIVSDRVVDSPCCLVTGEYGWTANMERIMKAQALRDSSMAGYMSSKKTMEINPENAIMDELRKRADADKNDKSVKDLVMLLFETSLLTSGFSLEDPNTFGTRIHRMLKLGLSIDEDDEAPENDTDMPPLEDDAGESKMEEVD
Binder,binding result (Hsp90),binding result (GST-Rar1 (wild type))
B1,binds,–
B2,–,binds
